# System: stromal cell-derived factor 1 (SDF-1)
substance,measurement,value
cathepsin K (CTK),"SDF-1 cleavage by CTK (SDS-PAGE and western blot, time course of minutes)",The results obtained show fast and site specific SDF-1 cleavage by CTK

# Reference: patent US20080305097
